Data reported in PMC11532494 (Nature Communications, 2024).
Several values for one entry are separate records, joined by “and”; a condition that tells them apart may be missing. Equal entries are not always repeated. Where two headings read alike, the source gives them in different places. No end group written: not given here. *: point of attachment. AMC = Cc1cc(=O)oc2cc(N*)ccc12

Tests used:
[1] = test system: VsHdaH (1b); format: biochemical, Vibrio sp.; settings: for RFU means, VsHdaH (1b) / RFU*2 means, VsHdaH (1b): means of two measurements; for [AMC] (nM), VsHdaH (1b), means / [AMC] (nM), VsHdaH (1b): substrate screening; for [AMC] (nM), VsHdaH (1b), means: mean of two measurements
[2] = test system: RsPrpH (1b); experiment: Substrate screening assay (acyl-peptide-AMC); format: biochemical, Rhizorhabdus sp.
[3] = target: RwDmhA (1b) (Rhizorhabdus wittichii, UniProt A0A067XIQ6); format: biochemical
[4] = target: KpHdaH (1b) (Klebsiella pneumoniae, UniProt A0A377Z5F6); format: biochemical; settings: for RFU means, KpHdaH (1b) / RFU*2 means, KpHdaH (1b): means of two measurements; for [AMC] (nM), KpHdaH (1b), means / [AMC] (nM), KpHdaH (1b): substrate screening; for [AMC] (nM), KpHdaH (1b), means: mean of two measurements
[5] = target: T1, BsAcuC (2c) (Bacillus subtilis, UniProt P39067); experiment: Substrate screening assay (acyl-peptide-AMC); format: biochemical; settings: for RFU means, BsAcuC (2c) / RFU*2 means, BsAcuC (2c): means of two measurements; for [AMC] (nM), BsAcuC (2c), means: substrate screening, mean of two measurements; for RFU*2, BsAcuC (2c): two measurements, single values
T1 construct: made in house; host or cells: E. coli BL21 (DE3)
T1 sequence (P39067 1-387): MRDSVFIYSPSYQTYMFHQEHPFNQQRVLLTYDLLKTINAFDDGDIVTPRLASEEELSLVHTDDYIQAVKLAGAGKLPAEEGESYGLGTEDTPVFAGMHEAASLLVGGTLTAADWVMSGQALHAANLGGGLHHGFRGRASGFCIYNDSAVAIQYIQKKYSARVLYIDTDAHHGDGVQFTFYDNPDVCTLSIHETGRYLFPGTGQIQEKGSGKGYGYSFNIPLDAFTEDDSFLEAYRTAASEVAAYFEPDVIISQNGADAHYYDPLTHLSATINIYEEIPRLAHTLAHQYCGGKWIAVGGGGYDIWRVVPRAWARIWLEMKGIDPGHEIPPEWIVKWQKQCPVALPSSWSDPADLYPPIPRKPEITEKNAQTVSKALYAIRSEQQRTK
Method: (§1) Experiments with SIRT2 and SIRT5 were supplemented with NAD^+ (500 µM). Thereafter, a solution of trypsin (25 µL, 5.0 mg/mL; final concentration of 2.5 mg/mL) was added, and the development of the assay was allowed to proceed for 90 min at room temperature before fluorescence analysis. […] To this end, a single category is given to all conversions >48% on the heatmap. […] For the H4-derived peptide LGKbio no positive control was available.

[6] = test system: VcHdaH (5b); format: biochemical, Vibrio cholerae; settings: for RFU means, VcHdaH (5b) / RFU*2 means, VcHdaH (5b): means of two measurements; for [AMC] (nM), VcHdaH (5b), means: substrate screening, mean of two measurements
[7] = target: PsApaH (4) (Pseudomonas sp. M30-35, UniProt A0A1Y0KY79); format: biochemical; settings: for RFU means, PsApaH (4) / RFU*2 means, PsApaH (4): means of two measurements; for [AMC] (nM), PsApaH (4), means / [AMC] (nM), PsApaH (4): substrate screening; for [AMC] (nM), PsApaH (4), means: mean of two measurements
Method: as §1

[8] = target: LcApaH (3) (Legionella cherrii, UniProt A0A0W0SGS1); format: biochemical
[9] = target: LpApaH (3) (Legionella pneumophila, UniProt A0A2S6EWV0); format: biochemical
[10] = test system: Controls; format: biochemical
[11] = test system: Controls; format: biochemical; remark: listed apart in the source
[12] = substrate screening, mean of two measurements
[13] = substrate screening, measurement 1 of two
[14] = substrate screening, measurement 2 of two
[15] = two measurements, single values

## QPKKhex (QPKK-{AMC}; not fully specified (residue 4); printed as QPKKhex; also: hexanoyl-lysine (which Lys not given here); UniProt P04637 317-320, looked up, fragment)
[1]
  RFU means, VsHdaH (1b): 66.5 RFU
  RFU*2 means, VsHdaH (1b): 133 RFU*2
  [AMC] (nM), VsHdaH (1b), means: 64.94 nM
[1]; measurement 1 of two
  [AMC] (nM), VsHdaH (1b): 35.16 nM
[1]; measurement 2 of two
  [AMC] (nM), VsHdaH (1b): 94.73 nM
[2]
  RFU means, RsPrpH (1b): -23.5 RFU
  RFU*2 means, RsPrpH (1b): -47 RFU*2
  [AMC] (nM), RsPrpH (1b), means: -22.95 nM
[3]
  RFU means, RwDmhA (1b): 55 RFU
  RFU*2 means, RwDmhA (1b): 110 RFU*2
  [AMC] (nM), RwDmhA (1b), means: 53.71 nM
[4]
  RFU means, KpHdaH (1b): 92 RFU
  RFU*2 means, KpHdaH (1b): 184 RFU*2
  [AMC] (nM), KpHdaH (1b), means: 89.84 nM
[4]; measurement 1 of two
  [AMC] (nM), KpHdaH (1b): 166.02 nM
[4]; measurement 2 of two
  [AMC] (nM), KpHdaH (1b): 13.67 nM
[5]
  RFU means, BsAcuC (2c): 1487.5 RFU
  RFU*2 means, BsAcuC (2c): 2975 RFU*2
  [AMC] (nM), BsAcuC (2c), means: 1452.64 nM
  RFU*2, BsAcuC (2c): 3440 RFU*2 and 2510 RFU*2
[6]
  RFU means, VcHdaH (5b): 50.5 RFU
  RFU*2 means, VcHdaH (5b): 101 RFU*2
  [AMC] (nM), VcHdaH (5b), means: 49.32 nM
[7]
  RFU means, PsApaH (4): 94.5 RFU
  RFU*2 means, PsApaH (4): 189 RFU*2
  [AMC] (nM), PsApaH (4), means: 92.29 nM
[7]; measurement 1 of two
  [AMC] (nM), PsApaH (4): 125.00 nM
[7]; measurement 2 of two
  [AMC] (nM), PsApaH (4): 59.57 nM
[8]
  RFU means, LcApaH (3): 70 RFU
  RFU*2 means, LcApaH (3): 140 RFU*2
  [AMC] (nM), LcApaH (3), means: 68.36 nM
[9]
  RFU means, LpApaH (3): 57.5 RFU
  RFU*2 means, LpApaH (3): 115 RFU*2
  [AMC] (nM), LpApaH (3), means: 56.15 nM
[10]
  RFU means, controls: 3600.5 RFU
  RFU*2, controls: 6176 RFU*2 and 8226 RFU*2
  RFU*2 means, controls: 7201 RFU*2
  RFU, controls: 3088 RFU and 4113 RFU
[11]
  [AMC] (nM), controls, means: 3516.11 nM

## QPKKmyr (QPKK-{AMC}; not fully specified (residue 4); printed as QPKKmyr; also: myristoyl-lysine (which Lys not given here); UniProt P04637 317-320, looked up, fragment)
[1]
  RFU means, VsHdaH (1b): -206 RFU
  RFU*2 means, VsHdaH (1b): -412 RFU*2
  [AMC] (nM), VsHdaH (1b), means: -201.17 nM
[1]; measurement 1 of two
  [AMC] (nM), VsHdaH (1b): 172.85 nM
[1]; measurement 2 of two
  [AMC] (nM), VsHdaH (1b): -575.20 nM
[2]; means of two measurements
  RFU means, RsPrpH (1b): -466 RFU
  RFU*2 means, RsPrpH (1b): -932 RFU*2
[2]; [12]
  [AMC] (nM), RsPrpH (1b), means: -455.08 nM
[2]; [13]
  [AMC] (nM), RsPrpH (1b): -105.47 nM
[2]; [14]
  [AMC] (nM), RsPrpH (1b): -804.69 nM
[3]; means of two measurements
  RFU means, RwDmhA (1b): -605.5 RFU
  RFU*2 means, RwDmhA (1b): -1211 RFU*2
[3]; [12]
  [AMC] (nM), RwDmhA (1b), means: -591.31 nM
[3]; [13]
  [AMC] (nM), RwDmhA (1b): -337.89 nM
[3]; [14]
  [AMC] (nM), RwDmhA (1b): -844.73 nM
[4]
  RFU means, KpHdaH (1b): 147 RFU
  RFU*2 means, KpHdaH (1b): 294 RFU*2
  [AMC] (nM), KpHdaH (1b), means: 143.55 nM
[4]; measurement 1 of two
  [AMC] (nM), KpHdaH (1b): 173.83 nM
[4]; measurement 2 of two
  [AMC] (nM), KpHdaH (1b): 113.28 nM
[4]; [15]
  RFU*2, KpHdaH (1b): 356 RFU*2 and 232 RFU*2
  RFU, KpHdaH (1b): 178 RFU and 116 RFU
[5]
  RFU means, BsAcuC (2c): 540 RFU
  RFU*2 means, BsAcuC (2c): 1080 RFU*2
  [AMC] (nM), BsAcuC (2c), means: 527.34 nM
[6]
  RFU means, VcHdaH (5b): -187.5 RFU
  RFU*2 means, VcHdaH (5b): -375 RFU*2
  [AMC] (nM), VcHdaH (5b), means: -183.11 nM
[7]
  RFU means, PsApaH (4): 76.5 RFU
  RFU*2 means, PsApaH (4): 153 RFU*2
  [AMC] (nM), PsApaH (4), means: 74.71 nM
[7]; measurement 1 of two
  [AMC] (nM), PsApaH (4): 39.06 nM
[7]; measurement 2 of two
  [AMC] (nM), PsApaH (4): 110.35 nM
[8]
  RFU means, LcApaH (3): 256.5 RFU
  RFU*2 means, LcApaH (3): 513 RFU*2
  [AMC] (nM), LcApaH (3), means: 250.49 nM
[9]
  RFU means, LpApaH (3): 459 RFU
  RFU*2, LpApaH (3): 820 RFU*2 and 1016 RFU*2
  RFU*2 means, LpApaH (3): 918 RFU*2
  RFU, LpApaH (3): 410 RFU and 508 RFU
  [AMC] (nM), LpApaH (3): 400.39 nM and 496.09 nM
  [AMC] (nM), LpApaH (3), means: 448.24 nM
[10]
  RFU means, controls: 6774 RFU
  RFU*2, controls: 12310 RFU*2 and 14786 RFU*2
  RFU*2 means, controls: 13548 RFU*2
  RFU, controls: 6155 RFU and 7393 RFU
[11]
  [AMC] (nM), controls, means: 6615.23 nM

## QPKKlau (QPKK-{AMC}; not fully specified (residue 4); printed as QPKKlau; also: lauroyl-lysine (which Lys not given here); UniProt P04637 317-320, looked up, fragment)
[1]
  RFU means, VsHdaH (1b): -74 RFU
  RFU*2 means, VsHdaH (1b): -148 RFU*2
  [AMC] (nM), VsHdaH (1b), means: -72.27 nM
[1]; measurement 1 of two
  [AMC] (nM), VsHdaH (1b): -150.39 nM
[1]; measurement 2 of two
  [AMC] (nM), VsHdaH (1b): 5.86 nM
[2]
  RFU means, RsPrpH (1b): -143.5 RFU
  RFU*2 means, RsPrpH (1b): -287 RFU*2
  [AMC] (nM), RsPrpH (1b), means: -140.14 nM
[3]
  RFU means, RwDmhA (1b): -41 RFU
  RFU*2 means, RwDmhA (1b): -82 RFU*2
  [AMC] (nM), RwDmhA (1b), means: -40.04 nM
[4]
  RFU means, KpHdaH (1b): -136.5 RFU
  RFU*2 means, KpHdaH (1b): -273 RFU*2
  [AMC] (nM), KpHdaH (1b), means: -133.30 nM
[4]; measurement 1 of two
  [AMC] (nM), KpHdaH (1b): -172.85 nM
[4]; measurement 2 of two
  [AMC] (nM), KpHdaH (1b): -93.75 nM
[5]
  RFU means, BsAcuC (2c): 849.5 RFU
  RFU*2 means, BsAcuC (2c): 1699 RFU*2
  [AMC] (nM), BsAcuC (2c), means: 829.59 nM
  RFU*2, BsAcuC (2c): 2008 RFU*2 and 1390 RFU*2
[6]
  RFU means, VcHdaH (5b): -82 RFU
  RFU*2 means, VcHdaH (5b): -164 RFU*2
  [AMC] (nM), VcHdaH (5b), means: -80.08 nM
[7]
  RFU means, PsApaH (4): 131 RFU
  RFU*2 means, PsApaH (4): 262 RFU*2
  [AMC] (nM), PsApaH (4), means: 127.93 nM
[7]; measurement 1 of two
  [AMC] (nM), PsApaH (4): 191.41 nM
[7]; measurement 2 of two
  [AMC] (nM), PsApaH (4): 64.45 nM
[8]
  RFU means, LcApaH (3): 6.5 RFU
  RFU*2 means, LcApaH (3): 13 RFU*2
  [AMC] (nM), LcApaH (3), means: 6.35 nM
[9]
  RFU means, LpApaH (3): 10.5 RFU
  RFU*2 means, LpApaH (3): 21 RFU*2
  [AMC] (nM), LpApaH (3), means: 10.25 nM
[10]
  RFU means, controls: 11610 RFU
  RFU*2, controls: 21150 RFU*2 and 25290 RFU*2
  RFU*2 means, controls: 23220 RFU*2
  RFU, controls: 10575 RFU and 12645 RFU
[11]
  [AMC] (nM), controls, means: 11337.89 nM
